Measurements published in US20210340273A1 (INHLBRX, published 2021).

Legend:
[1] = biological target: T1, murine 5T4 construct (Mu), full 5T4 coding region fused to an intracellular Citrine tag, on transfected CHO … (mouse, UniProt Q9Z0L0 32-426); assay: flow cytometry on CHO cells transiently transfected with the 5T4 construct
T1 construct: also called fully murine construct; mouse 5T4 antigen; not shown: intracellular Citrine tag
T1 sequence: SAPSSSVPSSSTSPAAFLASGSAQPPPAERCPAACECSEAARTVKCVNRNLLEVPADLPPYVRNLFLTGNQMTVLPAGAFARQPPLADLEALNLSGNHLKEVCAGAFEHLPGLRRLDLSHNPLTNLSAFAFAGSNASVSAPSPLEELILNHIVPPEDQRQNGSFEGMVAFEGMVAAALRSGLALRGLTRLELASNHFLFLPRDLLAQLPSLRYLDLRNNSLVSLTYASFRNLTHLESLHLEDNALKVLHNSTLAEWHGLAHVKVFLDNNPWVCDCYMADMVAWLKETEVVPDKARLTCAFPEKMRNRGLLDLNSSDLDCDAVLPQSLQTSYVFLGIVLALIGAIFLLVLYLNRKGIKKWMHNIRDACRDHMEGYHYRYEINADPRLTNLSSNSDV
Text: (§1) In order to determine the location of the epitope recognized by these sdAbs, various mouse:human chimeric 5T4 constructs were generated, wherein various portions of the murine extracellular domain of 5T4 were replaced with that of human 5T4. The constructs were generated by grafting a nucleic acid sequence encoding the specific region of human 5T4 into the cognate region of mouse 5T4 in a mammalian expression plasmid encoding the full 5T4 coding region (extracellular domain, transmembrane domain, intracellular domain) fused to an intracellular Citrine tag. […] CHO cells were transiently transfected with these constructs to enable cell surface expression, and binding was monitored by flow cytometry.

hmc5T4.1 = biological target: T2, hmc5T4.1; assay: as above
T2 construct: the rest is mouse 5T4; also called chimeric hmc5T4.1; hybrid mouse/human 5T4 with human residues 1-173 of the extracellular domain; not shown: intracellular Citrine tag fused to the full coding region
T2 chain: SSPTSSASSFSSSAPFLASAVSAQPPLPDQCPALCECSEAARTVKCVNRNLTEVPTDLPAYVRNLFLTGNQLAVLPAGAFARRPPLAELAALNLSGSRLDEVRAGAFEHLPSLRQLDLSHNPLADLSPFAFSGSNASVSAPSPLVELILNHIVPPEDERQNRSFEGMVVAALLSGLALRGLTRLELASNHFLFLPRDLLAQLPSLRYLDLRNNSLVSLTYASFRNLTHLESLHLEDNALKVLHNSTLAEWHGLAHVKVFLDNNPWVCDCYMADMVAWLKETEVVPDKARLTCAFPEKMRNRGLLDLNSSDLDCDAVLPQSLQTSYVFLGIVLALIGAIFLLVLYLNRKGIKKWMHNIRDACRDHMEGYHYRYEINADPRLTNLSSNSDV
Text: as §1

[2] = biological target: T3, human 5T4 construct (Hu), full 5T4 coding region fused to an intracellular Citrine tag, on transfected CHO … (human, UniProt Q13641 32-420); assay: as above
T3 construct: also called fully human construct; not shown: intracellular Citrine tag
T3 sequence: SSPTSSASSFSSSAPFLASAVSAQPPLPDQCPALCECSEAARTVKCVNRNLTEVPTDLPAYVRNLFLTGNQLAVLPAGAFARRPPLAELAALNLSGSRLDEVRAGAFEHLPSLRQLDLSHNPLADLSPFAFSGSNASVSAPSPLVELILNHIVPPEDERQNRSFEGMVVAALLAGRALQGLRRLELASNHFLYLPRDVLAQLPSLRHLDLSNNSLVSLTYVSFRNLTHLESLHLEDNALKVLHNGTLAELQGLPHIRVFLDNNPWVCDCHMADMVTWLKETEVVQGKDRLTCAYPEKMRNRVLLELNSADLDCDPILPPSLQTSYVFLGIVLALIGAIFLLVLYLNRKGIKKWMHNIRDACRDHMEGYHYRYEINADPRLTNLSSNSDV
Text: as §1

hmc5T4.2 = biological target: T4, hmc5T4.2; assay: as above
T4 construct: the rest is mouse 5T4; also called chimeric hmc5T4.2; not shown: intracellular Citrine tag fused to the full coding region
T4 chain: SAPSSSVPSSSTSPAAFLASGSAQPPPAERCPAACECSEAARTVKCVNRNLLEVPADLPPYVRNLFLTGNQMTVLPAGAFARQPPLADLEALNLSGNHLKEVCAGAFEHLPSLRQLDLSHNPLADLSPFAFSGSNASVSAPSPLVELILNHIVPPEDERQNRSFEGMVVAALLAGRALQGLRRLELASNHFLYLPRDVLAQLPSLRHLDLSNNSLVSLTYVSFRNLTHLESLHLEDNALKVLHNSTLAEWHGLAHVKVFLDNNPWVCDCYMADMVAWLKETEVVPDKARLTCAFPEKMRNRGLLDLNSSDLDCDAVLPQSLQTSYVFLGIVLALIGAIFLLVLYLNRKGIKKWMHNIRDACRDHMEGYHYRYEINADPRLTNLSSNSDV
Text: as §1

[3] = biological target: T5, human 5T4 (trophoblast glycoprotein), endogenous on the cell surface (human, UniProt Q13641 32-420); assay: flow cytometry, sdAb-Fc on 5T4 expressing T47D cells
T5 construct: also called TPBG; 5T4 oncofetal antigen
T5 sequence: T3 sequence

[4] = biological target: T1, murine 5T4 construct (Mu), full 5T4 …; assay: flow cytometry on CHO cells transfected with the fully murine 5T4 construct (Mu, FIG. 26C)
Text: as §1

[5] = biological target: T3, human 5T4 construct (Hu), full 5T4 …; assay: flow cytometry on CHO cells transfected with human, mouse and chimeric 5T4 constructs
Text: as §1

[6] = biological target: T5, human 5T4 (trophoblast glycoprotein), …; assay: flow cytometry on 5T4-positive OVCAR5 (Ovcar-5) cells, anti-human IgG secondary; titration
Method: FIGS. 4A-4M depict the binding of various 5T4-target constrained CD3 engaging constructs to the 5T4 positive Ovcar-5 cell line (top left) and the lack of binding to primary human T-cells (top right). […] Binding was assessed by flow cytometry using an anti-human IgG APC secondary antibody. The histograms display the normalized cell counts vs fluorescence at 200 nM of each construct.
Binding of exemplary 5T4-targeting constrained CD3 engaging constructs set forth in Table E3 to CD3 on the surface of primary T cells and 5T4 expressing cells (Ovcar-5) was assessed by flow cytometry. The T cells were primary T-cells that were negatively enriched from PBMCs isolated from healthy human donor leukopaks. Bound construct was detected with fluorophore-conjugated secondary antibodies specific for the human Fc (anti-human IgG APC secondary antibody) and binding was measured by flow cytometry. Cells incubated with secondary antibody only served as negative controls. […] The results, from flow cytometry histograms displaying normalized cell counts versus fluorescence at 200 nM of each construct, are shown in FIG. 4A (cx3253), FIG. 4B (cx3264), FIG. 4C (cx3497), FIG. 4D (cx3499), FIG. 4E (cx3547), FIG. 4F (cx3546), FIG. 4G (cx4224), FIG. 4H (cx4913), FIG. 4I (cx3265), […] (cx4912), FIG. 4K (cx3262), FIG. 4L (cx4911), and FIG. 4M (cx4910). […]

[7] = biological target: T5, human 5T4 (trophoblast glycoprotein), …; assay: printed as Affinity 5T4; apparent affinity from flow cytometry titration on Ovcar-5 cells
Method: Binding of exemplary 5T4-targeting constrained CD3 engaging constructs set forth in Table E3 to CD3 on the surface of primary T cells and 5T4 expressing cells (Ovcar-5) was assessed by flow cytometry. The T cells were primary T-cells that were negatively enriched from PBMCs isolated from healthy human donor leukopaks. Bound construct was detected with fluorophore-conjugated secondary antibodies specific for the human Fc (anti-human IgG APC secondary antibody) and binding was measured by flow cytometry. Cells incubated with secondary antibody only served as negative controls. The results, from flow cytometry histograms displaying normalized cell counts versus fluorescence at 200 nM of each construct, are shown in FIG. 4A (cx3253), FIG. 4B (cx3264), FIG. 4C (cx3497), FIG. 4D (cx3499), FIG. 4E (cx3547), FIG. 4F (cx3546), FIG. 4G (cx4224), FIG. 4H (cx4913), FIG. 4I (cx3265), […] (cx4912), FIG. 4K (cx3262), FIG. 4L (cx4911), and FIG. 4M (cx4910). […] However, as shown in the top right and bottom panels of each of the figures, the same constructs were not able to bind to T cells in isolation.
Table E4 summarizes the affinity of exemplary molecules for 5T4 or CD3, as determined from flow cytometry, in these studies.

[8] = biological target: T6, CD3 on the surface of primary human T cells or Jurkat reporter cells (human, UniProt P07766 23-207); assay: printed as Affinity CD3; flow cytometry titration on primary human T cells
T6 construct: whole, on cells; also called CD3 epsilon
T6 sequence (P07766 23-207): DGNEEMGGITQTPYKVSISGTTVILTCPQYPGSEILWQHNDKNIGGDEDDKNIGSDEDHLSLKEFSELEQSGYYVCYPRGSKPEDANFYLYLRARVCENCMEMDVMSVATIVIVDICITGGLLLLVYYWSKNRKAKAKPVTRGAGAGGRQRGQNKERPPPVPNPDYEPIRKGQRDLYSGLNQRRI

B1: hz12E9v9 sdAb-Fc (Fc fusion)
chain: EVQLVESGGGEVQPGGSLRLSCAASGRPFSSKTMAWFRQAPGKEREFVAAVRWIGGATRYTESVKGRFTISRDNAKNTVYLQMSSLRAEDTAVYYCAAGQAWGTKFTDYSDWGQGTLVTVKP
notes: Humanized variant of 12E9; also called hz12E9v09; hz12E9v9-Fc; not shown: human Fc
With B1 the binding result [1] was “no binding (tested: about 500 nM)”, the “EC50 (read off the curve)” value (hmc5T4.1) was roughly 0.8 nM and the “EC50 (read off the curve)” value [2] was roughly 1 nM.

B2: hz16G10v11 sdAb-Fc (Fc fusion)
chain: EVQLVESGGGEVQPGGSLRLSCAASGRPFSSYAMGWFRQAPGKERETVAAVSRNAGSSYYAESVKGRFTISRDNAKNTVYLQMSSLRAEDTAVYYCAARSAAYSRSSETYTEKHDYTYWGQGTLVTVKP
notes: Humanized variant of 16G10, linked to a human Fc; also called hz16G10v11-Fc; cx7885; not shown: human Fc
In the case of B2, the “EC50 (read off the curve)” value (hmc5T4.2) is reported as roughly 2 nM, the binding result [1] is reported as “no binding (tested: about 500 nM)” and the “EC50 (read off the curve)” value [2] is reported as roughly 3 nM.

B3: hz14B5v17 sdAb-Fc (Fc fusion)
chain: EVQLVESGGGEVQPGGSLRLSCAASERPFGTYAMGWFRQAPGKERDLVAAVSRNAGASYYAESVKGRFTISRDNAKNTVYLQMSSLRAEDTAVYYCAARSAAYSRSSEVYTGKDEYYYWGQGTLVTVKP
notes: Humanized variant of 14B5, linked to a human Fc; not shown: human Fc
B3: binds [3]; no binding [4]; binds [5].

B4: cx3499, 5T4-targeted constrained CD3 engaging construct with a 41BB binding domain (bispecific antibody)
chain 1: QVQLVQSGGGLVQAGGSLRLSCAASRRPFSSKTMAWFRQTPGKEREFVAAVRWIGGATRYTDSVKGRFSISKDNAINTVYLQMNSLKSEDTAVYYCAAGQAWGTKFTDYSDWGQGTQVTVKPDKTHTCPPCPAPELLGGPSVFLFPPKPKDTLMISRTPEVTCVVVDVSHEDPEVKFNWYVDGVEVHNAKTKPREEQYNSTYRVVSVLTVLHQDWLNGKEYKCKVSNKALPAPIEKTISKAKGQPREPQVYTLPPCRDELTKNQVSLWCLVKGFYPSDIAVEWESNGQPENNYKTTPPVLDSDGSFFLYSKLTVDKSRWQQGNVFSCSVMHEALHNHYTQKSLSLSPTGGSGGGGIEPDIGGSGGSEVQLVESGGGLVQPGGSLRLSCAASGFTFNTYAMNWVRQAPGKCLEWVARIRSKYNNYATYYADSVKGRFTISRDDAKNTLYLQMSSLRAEDTAVYYCVRHGNFGNSYVSWFAYWGQGTLVTVKPQVQLVQSGGGLVQAGDSLTLSCAVSERPFGTYAMGWFRQAPGRERDLVAAVSRNGGASQYGDSVKGRFSISRDNIKNTMYLQMNSLKPEDTAVYYCAARSAAYSRSSEVYTGKDEYYYWGQGTQVTVKP
chain 2: not shown
notes: Heterodimeric multispecific construct (5T4 x CD3 x 41BB)
In the case of B4, the “EC50 (read off the curve)” value [6] is reported as roughly 0.7 nM and the Kd [7] is reported as 0.653 nM.

B5: cx3264, 5T4-targeted constrained CD3 engaging construct with a 41BB binding domain (bispecific antibody)
chain 1: QVQLQESGGGLVQAGGSLRLSCAASRRPFSSKTMAWFRQTPGKEREFVAAVRWIGGATRYTDSVKGRFSISKDNAINTVYLQTNSLKSEDTAVYYCAAGQTWGTKFTDYSDWGQGTLVTVKPDKTHTCPPCPAPELLGGPSVFLFPPKPKDTLMISRTPEVTCVVVDVSHEDPEVKFNWYVDGVEVHNAKTKPREEQYNSTYRVVSVLTVLHQDWLNGKEYKCKVSNKALPAPIEKTISKAKGQPREPQVYTLPPCRDELTKNQVSLWCLVKGFYPSDIAVEWESNGQPENNYKTTPPVLDSDGSFFLYSKLTVDKSRWQQGNVFSCSVMHEALHNHYTQKSLSLSPTGGSGGGGIEPDIGGSGGSEVQLVESGGGLVQPGGSLRLSCAASGFTFNTYAMNWVRQAPGKCLEWVARIRSKYNNYATYYADSVKGRFTISRDDAKNTLYLQMSSLRAEDTAVYYCVRHGNFGNSYVSWFAYWGQGTLVTVKPQVQLQESGGGLVQAGGSLRLSCAASRRPFSSKTMAWFRQTPGKEREFVAAVRWIGGATRYTDSVKGRFSISKDNAINTVYLQTNSLKSEDTAVYYCAAGQTWGTKFTDYSDWGQGTLVTVKP
chain 2: not shown
With B5 the Kd [8] was greater than 200 nM and the Kd [7] was 0.145 nM.
